Experiments:
[1] = target: T1, WHTS, trimeric spike protein, wild-type (Wuhan) (SARS-CoV-2 (Wuhan), UniProt P0DTC2 14-1213); assay: dot blot
[2] = target: T1, WHTS, trimeric spike protein, wild-type …; assay: electrochemical impedance
[3] = target: T1, WHTS, trimeric spike protein, wild-type …; assay: electrochemical impedance; remark: listed apart in the source
[4] = target: WH-S1, spike S1 subunit, wild-type (SARS-CoV-2 (Wuhan), UniProt P0DTC2 14-685); assay: dot blot
[5] = target: T1, WHTS, trimeric spike protein, wild-type …; assay: electrochemical impedance; remark: listed apart in the source

TTCCGGTTAATTTATGCTCTACCCGTCCACCTACCGGAA (structured_DNA) [MSA1T]
Kd [1]: 11.9 ± 1.8 nM

B1: DSA1N5-SH (structured_DNA)
DNA: TTCCGGTTAATTTATGCTCTACCCGTCCACCTACCGGAATTTTTTTTTTTTTTTTTTTTTTTTTTTTTTACGGGTTTGGCGTCGGGCCTGGCGGGGGGATAGTGCGGTTTTT
modifications: 3' thiol (3ThioMC3-D)
binding result [2]: binds

GCGTTCGGAGTGGGTCGTGCGGCGCGGGACGAGTGGTGT (ssDNA) [M5C]
binding result [1]: no binding

TTCCGGTTAATTTATGCTCTACCCGTCCACCTACCGGAATTTT (structured_DNA, 3' thiol (3ThioMC3-D)) [MSA1T-SH]
binding result [3]: binds

B2: MSA1 (structured_DNA)
DNA: TTACGTCAAGGTGTCACTCCCACTTTCCGGTTAATTTATGCTCTACCCGTCCACCTACCGGAAGCATCTCTTTGGCGTG
binding result [4]: binds

B3: DMC (ssDNA)
DNA: CTATATCCCTTTAAGCCTGTGGGTCCACGAATCTACCTCTTTTTTTTTTTTTTTTTTTTTTTTTTTTTTGCGTTCGGAGTGGGTCGTGCGGCGCGGGACGAGTGGTGT
binding result [1]: no binding

ACGGGTTTGGCGTCGGGCCTGGCGGGGGGATAGTGCGGTTTTT (structured_DNA, 3' thiol (3ThioMC3-D)) [MSA5T-SH]
binding result [5]: binds

CTATATCCCTTTAAGCCTGTGGGTCCACGAATCTACCTC (ssDNA) [M1C]
binding result [1]: no binding

B4: MSA5 (structured_DNA)
DNA: TTACGTCAAGGTGTCACTCCACGGGTTTGGCGTCGGGCCTGGCGGGGGGATAGTGCGGTGGAAGCATCTCTTTGGCGTG
binding result [4]: binds
